# Measurements published in patent US8216580B2, “Sulfatases and methods of use thereof” (The Regents of the University of California, priority 2000, dated 2012).
# B1: Human glucosamine-6-sulfatase: human lysosomal glucosamine-6-sulfatase, purchased from Glyko Inc. (protein, UniProt P15586 37-552, looked up)
# N-acetylglucosamine-6-sulfatas …: VFGVAAGTRRPNVVLLLTDDQDEVLGGMTPLKKTKALIGEMGMTFSSAYVPSALCCPSRASILTGKYPHNHHVVNNTLEGNCSSKSWQKIQEPNTFPAILRSMCGYQTFFAGKYLNEYGAPDAGGLEHVPLGWSYWYALEKNSKYYNYTLSINGKARKHGENYSVDYLTDVLANVSLDFLDYKSNFEPFFMMIATPAPHSPWTAAPQYQKAFQNVFAPRNKNFNIHGTNKHWLIRQAKTPMTNSSIQFLDNAFRKRWQTLLSVDDLVEKLVKRLEFTGELNNTYIFYTSDNGYHTGQFSLPIDKRQLYEFDIKVPLLVRGPGIKPNQTSKMLVANIDLGPTILDIAGYDLNKTQMDGMSLLPILRGASNLTWRSDVLVEYQGEGRNVTDPTCPSLSPGVSQCFPDCVCEDAYNNTYACVRTMSALWNLQYCEFDDQEVFVEVYNLTADPDQITNIAKTIDPELLGKMNYRLMMLQSCSGPTCRTPGVFDPGYRFDPRLMFSNRGSVRTRRFSKHLL
# What was measured:
# [1] = comparison enzymes; cited from earlier work
# [2] = Arylsulfatase activity assay with 4-MUS substrate; format: biochemical; conditions: 1 milliunit, 24 hr incubation
# Experimental: The 100-fold concentrated conditioned medium (CM) derived from each transfection of CHO cells as described above was dialyzed into 50 mM HEPES, pH 8.0. The His-tagged fusion proteins were bound to a Ni-NTA resin (QIAGEN) by rotation at 4° C. over night, then washed with 50 mM HEPES (pH 8.0), 3 times. 250 mM imidazole in 50 mM HEPES, pH 8.0 was used to elute the His-tagged fusion proteins from Ni-NTA. The resins with boud material or the eluates were mixed with 10 mM 4-methylumbelliferyl-sulfate (4-MUS; a substrate for sulfatases), and 10 mM lead acetate, in a total volume of 100 μl. The reaction mixtures were incubated at 37° C. for various periods of time. Reactions were terminated by the addition of 100 μl of 0.5 M Na2CO3/NaHCO3, pH 10.7 to 20 μl of the reaction mixture. The fluorescence of 4-methylumbelliferone was measured on a Multi-Well Plate Reader CytoFluorII (PerSeptive Biosystems). The fluorescence was determined at an excitation wavelength of 360 nm and emission wavelength of 460 nm. A substrate dose response curve was performed over the concentration range of 1 to 10 mM 4-MUS.
# The synthetic fluorogenic compound 4-methylumbelliferyl sulfate (4-MUS) serves as a substrate for most sulfatases, both in the lysosomal and non-lysosomal classes. CHO cells were transfected with a cDNA for HSulf-1 or HSulf-2 or a vector control. Conditioned medium was collected and incubated with nickel resin (Ni-NTA) to bind the His-tagged recombinant proteins. The bead-bound material was assayed for activity on 4-MUS. For both enzymes, hydrolysis depended on time of reaction (FIG. 15A), concentration of substrate (FIG. 15B), and amount of CM (FIG. 15C). From the substrate dose-response curves of FIG. 15B and based on estimates of Sulf protein levels in CM, we approximated Vmax for the two Sulfs to be in the range of 1000-2000 nmol per min per mg of Sulf protein. Human glucosamine-6-sulfatase has a considerably lower Vmax against 4-MUS ([…]) whereas the Vmax of human N-acetylgalactosamine-4-sulfatase (arylsulfatase B) is much higher (48000).
# HSulf-1, HSulf-2 or their mutated forms (HSulf-1 ΔCC and HSulf-2 ΔCC) was purified from the conditioned medium of transfected CHO cells by binding to Ni-NTA beads. A) The bead-bound material was tested for arylsulfatase activity as a function of time against 10 mM 4-MUS substrate at pH 8. The “no-enzyme” control was based on testing conditioned medium from vector-control transfected CHO cells. No activity was detected in the absence of added substrate (not shown). […] The activity of each Sulf was determined relative to that of beads exposed to an equivalent volume of vector-control conditioned medium. The activity of HG6S was determined (24 hr incubation) relative to that of the buffer. […]
Molecule,Vmax against 4-MUS [1],arylsulfatase activity at pH 5 ([2]; pH 5),arylsulfatase activity at pH 8 ([2]; pH 8)
"human N-acetylgalactosamine-4-sulfatase: human N-acetylgalactosamine-4-sulfatase (arylsulfatase B), comparison enzyme [reference compound]",48000 nmol/min/mg,–,–
B1,100 nmol/min/mg,measurable activity,none
